“And” between values parts separate entries of the source, which are not always exact repeats. Identical values can stand only once.
How the values were obtained:
[1] = target: T1, recombinant human ILT7 protein (human, UniProt P59901 24-446, limits assumed); test: SPR on ProteOn, purified IgG on rILT7
T1 construct: Soluble recombinant protein used in ProteOn and BIAcore SPR; also called rILT7; Soluble Recombinant Human ILT7

cynomolgus ILT7 [2] = target: T2, cynomolgus ILT7 (cynomolgus, UniProt P59901 24-499 (human entry)); test: FACS on CHO cells expressing recombinant cyno ILT7
T2 construct: also called cyno ILT7; cynomolgus monkey ILT7

human ILT7 [3] = target: T3, human ILT7 (human, UniProt P59901 24-499); test: FACS on CHO cells expressing recombinant human ILT7
T3 construct: whole, on cells; also called LIRA4; LILRA4

[4] = target: T4, HA-tagged human ILT7 on CT-550 cells (human, UniProt P59901 24-499); test: flow cytometry on CT-550 cells expressing human ILT7, anti-human IgG DyLight 649 detection; table 'Mean Ec50 (nM)', n = 2
T4 construct: whole, on cells; CT-550 cells: CT-125 cells (2B4 murine T-cell hybridoma with mouse FcεRIγ and NFAT-GFP reporter) transduced with HA-tagged human ILT7; also called human ILT7-expressing cells; not shown: HA tag
Protocol: (§1) Binding of anti-ILT7 variants and isotype controls on human and cynomolgus ILT7 was assessed by flow cytometry analysis using CT-550 and cynoILT7 CT-125 cells respectively. CT-125 cells were used as control. Cells were resuspended in Blocking Buffer (PBS supplemented with 10% FBS) at a concentration of 5 million cells per mL and transferred into a round-bottom 96-well plates (BD Falcon™ Clear Microtest Plate, BD Biosciences) at 100 μL per well. Anti-ILT7 variants and control antibodies were added onto the cells for 30 min at 4° C. on a plate shaker. Cells were washed three times with PBS and resuspended in Blocking Buffer (100 μL/well). Human IgG binding on cell surface was detected using a secondary anti-human IgG antibody conjugated to DyLight 649 (1 in 1000 dilution). Cells were incubated in the dark for 30 min at 4° C. on a plate shaker. Cells were washed three times with PBS and surface fluorescence was acquired using LSRII Flow Cytometry System and FACSDiva Software (both from BD Biosciences).
(§2) In order to determine the binding EC50 of ILT70019, ILT70028, ILT70052, ILT70076, ILT70080, ILT70083, ILT70089, ILT70100, ILT70137, ILT70142 and ILT70144 on cells expressing human ILT7, the candidates were screened for binding on CT-550 cells by flow cytometry. ILT70080 (EC₅₀=0.28 nM), ILT70083 (EC₅₀=0.37 nM), ILT70137 (EC₅₀=0.41 nM), ILT70144, ILT70142, ILT70052, and ILT70100 bound to human ILT7-expressing cells. […] The anti-ILT7 antibodies 7C7 (7C7 is described above in Example 1) and SBI33 (SBI33 refers to the anti-ILT7 antibody ILT7#33 provided in U.S. Published Application No. 2009/0280128) were used as positive controls.

cynomolgus ILT7 [5] = target: T2, cynomolgus ILT7; test: flow cytometry on CynoILT7 CT-125 cells expressing cynomolgus ILT7, anti-human IgG DyLight 649 detection; table 'Mean Ec50 (nM)', n = 2
Protocol: as §1
(§3) In order to determine the binding EC₅₀ of the variants on cells expressing cynomolgus ILT7, the antibodies were screened for binding on CynoILT7 CT-125 cells by flow cytometry. […] The graph in FIG. 3 represents the mean results from two independent experiments, and the table in FIG. 3 show the average EC₅₀.

human ILT7 [6] = target: T3, human ILT7; test: FMAT cell binding assay, CHO-K1 cells expressing human ILT7, IgG
From the text: (§4) This homogeneous assay assessed the binding of crude scFv supernatant samples or purified IgG to Chinese Hamster Ovary (CHO) cells expressing either human or cynomolgus ILT7 in a 384-well (Costar 3655) format. ScFv or Ab binding to cells was detected using a mouse anti-His/goat anti-mouse Alexafluor®-647 labelled antibody (Molecular Probes A21236) mix, or goat anti-human Alexafluor®-647 labelled antibody (Molecular Probes A21445) respectively. Plates were read on the Applied Biosystems Cellular Detection system 8200 reader. The Helium neon excitation laser was focused within 100 μm depth of the bottom of the well, scanning an area 1 mm². The cells settled at the bottom of the well, and upon laser excitation at 633 nm, those beads with fluorophore bound (where the local concentration of fluorophore is relatively high compared to unbound fluorophore) emitted a signal at 650-685 nm that was measured using photomultiplier tube-1 (PMT1). […] The presence of scFv or IgG samples binding to the cells at the bottom of the well caused an increase in Alexafluor-labeled detection antibody within the excitation depth. This was measured as an increase in fluorescence.
(§5) The cells used were CHO-Kl cells expressing either human or cynomolgus ILT7 that were cultured using standard tissue culture techniques. […]
(§6) Species cross-reactivity of anti-ILT7 antibodies was determined using FMAT binding assay. […]

cynomolgus ILT7 [7] = target: T2, cynomolgus ILT7; test: FMAT cell binding assay, CHO-K1 cells expressing cynomolgus ILT7, IgG
From the text: as §4, §5, §6

[8] = target: T4, HA-tagged human ILT7 on CT-550 cells; test: flow cytometry on CT-550 cells expressing human ILT7, anti-human IgG DyLight 649 detection; mean of two experiments
Protocol: as §1
In order to determine the binding EC50 of ILT70019, ILT70028, ILT70052, ILT70076, ILT70080, ILT70083, ILT70089, ILT70100, ILT70137, ILT70142 and ILT70144 on cells expressing human ILT7, the candidates were screened for binding on CT-550 cells by flow cytometry. […]

[9] = target: T4, HA-tagged human ILT7 on CT-550 cells; test: cell-based or functional assay
cynomolgus ILT7 [10] = target: T2, cynomolgus ILT7; test: cell-based or functional assay
[11] = target: T4, HA-tagged human ILT7 on CT-550 cells; test: flow cytometry on CT-550 cells
Protocol: as §1, §2

cynomolgus ILT7 [12] = target: T2, cynomolgus ILT7; test: flow cytometry on CynoILT7 CT-125 cells
Protocol: as §1, §3

cynomolgus ILT7 [13] = target: T2, cynomolgus ILT7; test: flow cytometry on cells expressing cynomolgus ILT7 (CT-125 cells)
Protocol: as §1
The resultant IgG1s were tested to confirm that the sequence changes incorporated into ILT70080 and ILT70083 and had not adversely impacted the binding of the parent antibody to cells expressing human ILT7 (CT-550 cells) or cynomolgus ILT7 (CT-125 cells). The variants were screened for binding by flow cytometry. […]

[14] = target: T4, HA-tagged human ILT7 on CT-550 cells; test: flow cytometry on human ILT7-expressing cells, left panel 'Human ILT7', table 'Ec50 (nM)'
Protocol: as §1

cynomolgus ILT7 [15] = target: T2, cynomolgus ILT7; test: flow cytometry on cynomolgus ILT7-expressing cells, right panel 'Cyno ILT7', table 'Ec50 (nM)'
Protocol: as §1

cynomolgus ILT7 [16] = target: T2, cynomolgus ILT7; test: FACS on CHO cells expressing recombinant cyno ILT7; reference antibody of the comparison
human ILT7 [17] = target: T3, human ILT7; test: FACS on CHO cells expressing recombinant human ILT7; reference antibody of the comparison

T2 sequence (P59901 other isoform, or with tags, fused parts or gaps limits assumed): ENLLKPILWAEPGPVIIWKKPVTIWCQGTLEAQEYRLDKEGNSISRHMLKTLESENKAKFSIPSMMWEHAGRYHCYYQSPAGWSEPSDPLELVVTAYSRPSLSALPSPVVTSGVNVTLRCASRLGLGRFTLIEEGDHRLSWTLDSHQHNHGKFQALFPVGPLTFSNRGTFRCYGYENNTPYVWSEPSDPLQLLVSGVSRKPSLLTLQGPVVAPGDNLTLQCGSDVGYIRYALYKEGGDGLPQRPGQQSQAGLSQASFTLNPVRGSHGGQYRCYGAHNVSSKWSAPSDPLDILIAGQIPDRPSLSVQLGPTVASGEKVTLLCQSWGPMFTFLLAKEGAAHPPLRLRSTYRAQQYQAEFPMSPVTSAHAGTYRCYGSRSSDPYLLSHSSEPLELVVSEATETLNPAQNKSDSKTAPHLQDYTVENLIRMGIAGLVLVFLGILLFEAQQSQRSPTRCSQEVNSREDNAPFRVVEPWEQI
T3 sequence (P59901 24-499): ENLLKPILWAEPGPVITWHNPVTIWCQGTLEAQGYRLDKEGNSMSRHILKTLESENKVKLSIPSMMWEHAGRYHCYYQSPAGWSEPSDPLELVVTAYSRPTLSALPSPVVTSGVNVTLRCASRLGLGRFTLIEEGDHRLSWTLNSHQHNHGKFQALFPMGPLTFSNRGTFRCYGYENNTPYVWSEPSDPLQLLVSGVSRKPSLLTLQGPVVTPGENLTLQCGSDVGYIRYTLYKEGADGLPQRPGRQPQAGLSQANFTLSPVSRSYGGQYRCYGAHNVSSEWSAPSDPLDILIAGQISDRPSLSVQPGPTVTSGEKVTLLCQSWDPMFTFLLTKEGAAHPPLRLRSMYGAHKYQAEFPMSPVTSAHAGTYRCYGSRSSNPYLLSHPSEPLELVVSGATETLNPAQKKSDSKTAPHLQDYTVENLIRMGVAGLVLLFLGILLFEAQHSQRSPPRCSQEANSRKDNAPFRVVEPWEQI
T4 sequence (P59901 24-499): as above
T1 sequence (P59901 24-446 limits assumed): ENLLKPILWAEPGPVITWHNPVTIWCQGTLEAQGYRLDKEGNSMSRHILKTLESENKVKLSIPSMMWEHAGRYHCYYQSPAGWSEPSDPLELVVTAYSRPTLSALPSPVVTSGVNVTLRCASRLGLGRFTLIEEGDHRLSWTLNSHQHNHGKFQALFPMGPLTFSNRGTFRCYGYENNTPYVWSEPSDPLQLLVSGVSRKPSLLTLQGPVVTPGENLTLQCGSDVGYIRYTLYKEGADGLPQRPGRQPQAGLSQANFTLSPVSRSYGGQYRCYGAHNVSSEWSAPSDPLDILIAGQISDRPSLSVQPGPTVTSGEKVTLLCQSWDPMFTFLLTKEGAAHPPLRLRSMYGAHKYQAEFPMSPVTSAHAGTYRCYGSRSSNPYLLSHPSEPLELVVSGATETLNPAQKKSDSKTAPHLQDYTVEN

B1: 7C7 (antibody, V domains shown)
VH: EVQLVESGGGVVQPGRSLRLSCAASGFTFSIYPIEWVRQAPGQGLEWIGNFHPYNDDTKYNEKFKGRVTMTTDTSTSTVYMELSSLRSEDTAVYYCTRGDDYGLDYWGQGTLVTVSS
VL: NIQMTQSPSSLSASVGDRVTITCDASQNVRTAVAWYQQKPGKAPKRLIYLASNRHTGVPSRFSGSGSGTDFTLTISSLQSEDFATYYCLQHWNYPFTFGPGTKLEIK
notes: also called anti-ILT7 clone 7C7
fold KD improvement over SBI28ch [1]: ~60 fold
fold better EC50 than SBI28ch (cynomolgus ILT7 [2]): 14 fold
fold better EC50 than SBI28ch (human ILT7 [3]): 2.2 fold
EC50 [4]: 1.3 nM
EC50 (cynomolgus ILT7 [5]): 8.34 nM

B2: ILT70089 (antibody, V domains shown)
VH: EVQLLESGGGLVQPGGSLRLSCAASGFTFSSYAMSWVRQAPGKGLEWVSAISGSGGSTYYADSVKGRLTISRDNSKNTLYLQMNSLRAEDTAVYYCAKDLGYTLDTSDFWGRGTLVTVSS
VL: SYVLTQPPSASGSPGQGVTISCSGSSSNIGTNTVNWYLHVPGTAPKLLTYTNNQRPSGVQDRFSGSKSDTSASLAISGLQAEDEGDYYCATWDDSLNGLAFGGGTKLTVL
binding result (human ILT7 [6]): binds
binding result (cynomolgus ILT7 [7]): binds
binding result [8]: binds

B3: ILT70080 (antibody, V domains shown)
VH: QVQLVQSGAEVKAPGTSVKVSCKASGDSFRNYAVSWVRQAPGQGLEWMGAMMPSFGTREHSQQFNGRVTLSADESTSTAYLELSSLRYDDTAVYYCAGSRDYNAYHFWTGPPDFWGRGTLVTVSS
VL: SYELTQPPSVSVAPGKTAKISCGGDSVGSTSVHWYQQKPGQAPVMVMFYNSDRPSGIPERFSGSISGNTATLTISRVEAGDEADYYCQVWDTSSDHPEFGGGTKLTVL
notes: also called ITL70080
ADCC EC50 [9]: 0.022 nM and 0.013 nM
ADCC EC50 (cynomolgus ILT7 [10]): 0.008 nM and 0.006 nM
EC50 [11]: 0.28 nM and 0.213 nM
EC50 (cynomolgus ILT7 [12]): 0.44 nM
EC50 (cynomolgus ILT7 [13]): 0.547 nM
EC50 [14]: 0.3 nM
EC50 (cynomolgus ILT7 [15]): 0.41 nM

B4: SBI28ch (antibody, V domains shown)
VH: QVQLQQSGAELVKPGASVKMSCKAFGYTFTTYPIEWMKQNHGKSLEWIGNFHPYNDDTKYNEKFKGKAKLTVEKSSSTVYLELSRLTSDDSAVYYCARGDDYGMDYWGQGTSVTVSS
VL: DIVMTQSQKFMSTSVGDRVSITCKASQNVRTAVAWYQQKPGQSPKALIYLASNRHTGVPDRFTGSGSGTDFTLTISNVQSEDLADYFCLQHWNYPFTFGSGTKLEIK
notes: also called chimeric SBI28; ILT7#28
binding result (cynomolgus ILT7 [16]): binds
binding result (human ILT7 [17]): binds
